Assay results published in publication PMC4275180.

What was measured:
Stat1 [1] = target: Stat1 (UniProt P42224); experiment: GST pull-down after in vitro kinase reaction; details: reference: His-KDM3A(1-394) not phosphorylated by MSK1; sites S264
Stat1 [2] = target: Stat1 (UniProt P42224); experiment: FLAG co-IP, western blot; details: reference: wild type FLAG-KDM3A; sites S264

| Substance | binding against the reference (Stat1 [1]) | binding against the reference (Stat1 [2]) |
| --- | --- | --- |
| KDM3A 1-394 (from UniProt Q9Y4C1) His-KDM3A(1-394) phosphorylated by recombinant MSK1 | gained | – |
| KDM3A (from UniProt Q9Y4C1) S264A | – | lost |
